Experiments:
[1] = molecular target: ENO1 wild type (Enolase 1) (Homo sapiens) (UniProt P06733); experiment: EMSA
[2] = molecular target: ENO1down (ENO1-K343A) (Homo sapiens) (UniProt P06733); experiment: EMSA; details: competition EMSA
ENO1down (ENO1-K343A) (Homo sapiens), sequence (P06733 whole entry K343A): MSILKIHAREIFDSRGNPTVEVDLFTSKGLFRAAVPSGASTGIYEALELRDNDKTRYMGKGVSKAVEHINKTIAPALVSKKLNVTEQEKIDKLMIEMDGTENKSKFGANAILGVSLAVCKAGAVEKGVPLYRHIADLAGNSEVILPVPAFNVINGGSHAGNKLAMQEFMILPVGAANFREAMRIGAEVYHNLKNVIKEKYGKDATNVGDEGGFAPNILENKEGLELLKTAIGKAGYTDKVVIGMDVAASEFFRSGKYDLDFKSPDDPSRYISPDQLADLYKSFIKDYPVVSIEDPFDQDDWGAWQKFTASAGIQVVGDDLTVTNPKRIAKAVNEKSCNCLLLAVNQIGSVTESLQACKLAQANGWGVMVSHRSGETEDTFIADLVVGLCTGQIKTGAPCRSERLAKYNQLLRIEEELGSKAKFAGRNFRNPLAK

ENO1 wild type (Enolase 1) (Homo sapiens), sequence (P06733 2-434): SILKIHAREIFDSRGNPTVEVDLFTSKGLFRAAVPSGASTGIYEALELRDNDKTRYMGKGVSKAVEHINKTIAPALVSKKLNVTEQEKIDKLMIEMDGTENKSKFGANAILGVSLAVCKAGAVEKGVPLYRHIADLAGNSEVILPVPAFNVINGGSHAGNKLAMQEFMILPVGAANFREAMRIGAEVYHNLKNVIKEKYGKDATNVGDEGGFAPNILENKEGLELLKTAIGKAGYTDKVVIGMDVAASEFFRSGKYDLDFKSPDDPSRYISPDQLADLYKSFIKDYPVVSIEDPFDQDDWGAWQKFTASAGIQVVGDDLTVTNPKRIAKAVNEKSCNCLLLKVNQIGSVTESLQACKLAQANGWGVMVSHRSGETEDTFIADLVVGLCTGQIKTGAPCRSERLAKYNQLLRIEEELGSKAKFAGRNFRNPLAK

Row | Substance | Ki ([1]; competition EMSA with labelled PABPC1 target 35-mer probe) | Ki ([2]; about 5-10-fold decreased RNA binding vs wt) | Ki ([1]; competition EMSA with labelled PABPC1 target probe) | Ki [2]
1 | PABPC1 5'UTR target 35-mer RNA | 27 nM | 224 nM |  | 
2 | PABPC1 control 35-mer RNA (GC-matched, downstream of binding site) |  |  | 2590 nM | 3260 nM
